# Data as given in patent publication WO2011095604A1 (dated 2011).
# Where no end group is shown, it is not given here.
# T1: C2 domain of FVIII (Homo sapiens (Human), UniProt P00451 2192-2351)
# T1 construct: Negative control
# T1 sequence: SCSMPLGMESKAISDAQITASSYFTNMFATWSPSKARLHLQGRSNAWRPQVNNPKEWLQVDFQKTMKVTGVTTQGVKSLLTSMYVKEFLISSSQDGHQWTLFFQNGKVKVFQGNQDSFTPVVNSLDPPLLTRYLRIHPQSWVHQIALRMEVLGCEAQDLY
# How the values were obtained:
# C2 domain of FVIII = target: T1, C2 domain of FVIII; assay: BLI (Octet Red), biotinylated peptide on streptavidin sensor
# recombinant FIX = target: T2, recombinant FIX (UniProt P00740 47-461); assay: as above
# T2 construct: Negative control; also called factor IX
# T2 sequence (P00740 47-461 limits assumed): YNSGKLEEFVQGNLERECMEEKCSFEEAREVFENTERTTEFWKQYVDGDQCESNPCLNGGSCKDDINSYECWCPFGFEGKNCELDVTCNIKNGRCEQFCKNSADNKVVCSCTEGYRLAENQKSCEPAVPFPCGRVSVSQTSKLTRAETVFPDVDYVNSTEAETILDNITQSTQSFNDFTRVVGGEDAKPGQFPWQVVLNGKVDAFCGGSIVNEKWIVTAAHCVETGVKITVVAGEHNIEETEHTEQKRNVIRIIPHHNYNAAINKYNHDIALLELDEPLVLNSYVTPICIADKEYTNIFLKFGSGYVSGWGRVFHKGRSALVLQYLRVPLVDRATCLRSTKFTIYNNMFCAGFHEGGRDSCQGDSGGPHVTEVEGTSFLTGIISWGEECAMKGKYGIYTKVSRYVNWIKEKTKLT
Binder,binding result (C2 domain of FVIII),binding result (recombinant FIX)
"EPLMTMKMIRVMRKL (also: biotinylated (position not given here), random peptide of the Octet screening) [SEQ ID NO 8]",no binding,no binding
"WKHHMRKAIPKYEGK (also: biotinylated (position not given here), random peptide of the Octet screening) [SEQ ID NO 12]",no binding,no binding
"WCPFGFEGKNCELDVTCNIKNGRCEQFCKNSADNKVVCS (cysteine pairing not given here; also: biotinylated (position not given here), random peptide of the Octet screening) [SEQ ID NO 23]",no binding,no binding
"DMFKSVRQLMMSRGR (also: biotinylated (position not given here), random peptide of the Octet screening) [SEQ ID NO 13]",no binding,no binding
"AYRPSTSREHWRRHW (also: biotinylated (position not given here), random peptide of the Octet screening) [SEQ ID NO 16]",no binding,no binding
"SPWSWQRQMKKWTPQ (also: biotinylated (position not given here), random peptide of the Octet screening) [SEQ ID NO 15]",no binding,no binding
"IADKEYTNIFLKFGSGYVS (also: biotinylated (position not given here), random peptide of the Octet screening) [SEQ ID NO 19]",no binding,no binding
"TERQMIHKIFALMSG (also: biotinylated (position not given here), random peptide of the Octet screening) [SEQ ID NO 9]",no binding,no binding
"SPSWVRPSIMEWRMN (also: biotinylated (position not given here), random peptide of the Octet screening) [SEQ ID NO 5]",no binding,no binding
"PIRIMIHSLIMNRPT (also: biotinylated (position not given here), random peptide of the Octet screening) [SEQ ID NO 4]",no binding,no binding
"ISRWRLLMGKKSQHD (also: biotinylated (position not given here), random peptide of the Octet screening) [SEQ ID NO 18]",no binding,no binding
"NKLTSGDRPGLWFMV (also: biotinylated (position not given here), random peptide of the Octet screening) [SEQ ID NO 6]",no binding,no binding
"TTWGMRIRLFERQAR (also: biotinylated (position not given here), random peptide of the Octet screening) [SEQ ID NO 2]",no binding,no binding
"RVPLVDRATCLRSTKFTIYNN (also: biotinylated (position not given here), random peptide of the Octet screening) [SEQ ID NO 20]",no binding,no binding
"QRIKGLHFATSMGYA (also: biotinylated (position not given here), random peptide of the Octet screening) [SEQ ID NO 14]",no binding,no binding
"IADKEYTNIFLKFGVSVLVDRATCLRSTKFTIYNN (also: biotinylated (position not given here), random peptide of the Octet screening) [SEQ ID NO 21]",no binding,no binding
"RDERMKLIRNFSPIM (also: biotinylated (position not given here), random peptide of the Octet screening) [SEQ ID NO 7]",no binding,no binding
"KKRDARTNYRYMAYS (also: biotinylated (position not given here), random peptide of the Octet screening) [SEQ ID NO 17]",no binding,no binding
"EMMKPNYADLIMRKR (also: biotinylated (position not given here), random peptide of the Octet screening) [SEQ ID NO 10]",no binding,no binding
"RMRMYSSLRAWKESA (also: biotinylated (position not given here), random peptide of the Octet screening) [SEQ ID NO 3]",no binding,no binding
"EYISWEYC (also: biotinylated (position not given here), random peptide of the Octet screening) [SEQ ID NO 22]",no binding,no binding
"LSGKNGPWVKMIMWG (also: biotinylated (position not given here), random peptide of the Octet screening) [SEQ ID NO 11]",no binding,no binding
